Source: patent US20050282743A1, “Molecular interactions in cells” (Arbor Vita Corporation, priority 2001, published 2005)

Tests used:
Assay in all cases: G' assay
[1] = target: T1, GST-KIAA0807(S) PDZ domain 1 (Homo sapiens (Human)), Q6P0Q8
T1 chain: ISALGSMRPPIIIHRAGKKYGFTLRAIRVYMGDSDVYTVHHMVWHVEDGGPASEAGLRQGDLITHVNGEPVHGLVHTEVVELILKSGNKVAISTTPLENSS

[2] = target: T2, GST-PTPL1 PDZ domain 4 (Homo sapiens (Human)), Q12923
T2 chain: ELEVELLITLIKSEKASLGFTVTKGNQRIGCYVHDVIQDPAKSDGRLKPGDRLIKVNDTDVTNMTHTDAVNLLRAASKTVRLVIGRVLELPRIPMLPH

[3] = target: GST-KIAA807 [GST: P08515]
[4] = target: T3, GST-MUPP1 PDZ domain 9 (Homo sapiens (Human)), O75970
T3 chain: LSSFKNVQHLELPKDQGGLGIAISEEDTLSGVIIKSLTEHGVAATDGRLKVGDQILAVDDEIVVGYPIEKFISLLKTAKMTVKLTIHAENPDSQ

[5] = target: T4, GST-MUPP1 PDZ domain 7 (Homo sapiens (Human)), O75970
T4 chain: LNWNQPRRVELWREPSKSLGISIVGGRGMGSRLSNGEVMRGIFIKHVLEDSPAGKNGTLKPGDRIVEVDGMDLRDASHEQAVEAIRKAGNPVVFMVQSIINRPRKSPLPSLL

[6] = target: T5, GST-MUPP1 PDZ domain 3 (Homo sapiens (Human)), O75970
T5 chain: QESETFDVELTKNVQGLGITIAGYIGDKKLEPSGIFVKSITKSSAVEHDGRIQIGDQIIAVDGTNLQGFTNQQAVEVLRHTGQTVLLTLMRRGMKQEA

[7] = target: T6, GST-KIAA1634 PDZ domain 2 (Homo sapiens (Human)), Q5TCQ9
T6 chain: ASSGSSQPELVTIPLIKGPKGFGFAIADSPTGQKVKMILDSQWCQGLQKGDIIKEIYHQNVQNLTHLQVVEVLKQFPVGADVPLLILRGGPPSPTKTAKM

[8] = target: GST-PSD95 PDZ domains 1, 2, 3 (Homo sapiens), P78352
[9] = target: T7, GST-MUPP1 PDZ domain 10 (Homo sapiens (Human)), O75970
T7 chain: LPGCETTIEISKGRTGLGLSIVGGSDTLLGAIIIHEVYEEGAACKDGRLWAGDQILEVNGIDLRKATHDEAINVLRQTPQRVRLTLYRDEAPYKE

[10] = target: GST-KIAA0147 PDZ domain 1 (Homo sapiens (Human)), Q14160
[11] = target: T8, GST-FLJ00011 PDZ domain 1 (Homo sapiens (Human)), Q9H5P4
T8 chain: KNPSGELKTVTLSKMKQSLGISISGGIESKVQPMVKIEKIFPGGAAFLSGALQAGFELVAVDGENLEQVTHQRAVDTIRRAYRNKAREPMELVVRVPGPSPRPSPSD

[12] = target: T9, GST-INADL PDZ domain 8 (Homo sapiens (Human)), Q8NI35
T9 chain: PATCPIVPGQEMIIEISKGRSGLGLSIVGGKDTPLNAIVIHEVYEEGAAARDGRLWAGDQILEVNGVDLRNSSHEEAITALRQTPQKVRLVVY

[13] = target: GST-KIAA1634 PDZ domain 1 (Homo sapiens (Human)), Q5TCQ9
[14] = target: T10, GST-TIP1 PDZ domain 1 (Table 9 insert) (Homo sapiens (Human)), O14907
T10 chain: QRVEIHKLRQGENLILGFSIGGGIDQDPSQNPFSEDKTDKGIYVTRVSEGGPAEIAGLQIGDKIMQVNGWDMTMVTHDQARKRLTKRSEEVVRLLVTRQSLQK

[15] = target: T11, GST-NeDLG PDZ domains 1, 2, Q92796
T11 chain: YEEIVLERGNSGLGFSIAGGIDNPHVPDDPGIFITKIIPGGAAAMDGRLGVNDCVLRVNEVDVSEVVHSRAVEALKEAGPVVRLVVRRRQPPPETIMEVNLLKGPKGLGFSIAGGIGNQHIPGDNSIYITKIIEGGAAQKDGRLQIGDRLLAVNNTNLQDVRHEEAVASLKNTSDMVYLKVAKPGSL

[16] = target: GST-BAI-1 Associated Protein PDZ domain 2 (Mus musculus (Mouse)), Q6RHR9
[17] = target: GST-DLG1 PDZ domains 1, 2 (Homo sapiens), Q12959
[18] = target: T12, GST-KIAA0382 PDZ domain 1 (Canis lupus familiaris (Dog) (Canis familiaris)), A0A8I3
T12 chain: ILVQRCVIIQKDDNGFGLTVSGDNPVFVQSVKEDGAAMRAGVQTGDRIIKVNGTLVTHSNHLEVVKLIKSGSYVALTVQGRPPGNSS

[19] = target: GST-BAI-1 Associated Protein PDZ domain 5 (Homo sapiens (Human)), Q96QZ7
[20] = target: T13, GST-Outer Membrane PDZ domain 1 (Homo sapiens (Human)), P57105
T13 chain: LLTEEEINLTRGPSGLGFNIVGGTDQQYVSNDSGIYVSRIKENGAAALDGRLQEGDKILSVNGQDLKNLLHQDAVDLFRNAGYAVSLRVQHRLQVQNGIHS

[21] = target: T14, GST-MINT1 PDZ domains 1, 2, Q02410
T14 chain: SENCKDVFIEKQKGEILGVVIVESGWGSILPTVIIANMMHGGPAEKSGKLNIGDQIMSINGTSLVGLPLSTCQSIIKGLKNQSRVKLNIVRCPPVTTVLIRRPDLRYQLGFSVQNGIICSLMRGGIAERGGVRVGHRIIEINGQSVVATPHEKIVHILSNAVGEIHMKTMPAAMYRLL

[22] = target: T15, GST-MINT1 PDZ domain 2 (Mus musculus (Mouse)), B2RUJ5
T15 chain: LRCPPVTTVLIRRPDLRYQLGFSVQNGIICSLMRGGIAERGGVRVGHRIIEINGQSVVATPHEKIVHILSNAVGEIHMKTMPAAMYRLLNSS

[23] = target: T16, GST-KIAA0973 PDZ domain 1 (Homo sapiens (Human)), Q9Y2H9
T16 chain: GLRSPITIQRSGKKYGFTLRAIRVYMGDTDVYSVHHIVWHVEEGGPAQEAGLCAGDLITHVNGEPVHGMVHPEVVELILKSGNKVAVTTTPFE

[24] = target: T17, GST-KIAA0380 PDZ domain 1 (Homo sapiens (Human)), O15085
T17 chain: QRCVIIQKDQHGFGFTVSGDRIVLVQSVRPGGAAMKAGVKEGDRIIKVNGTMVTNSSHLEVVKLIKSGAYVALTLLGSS

[25] = target: T18, GST-APXL-1 PDZ domain 1 (Homo sapiens (Human)), Q13796
T18 chain: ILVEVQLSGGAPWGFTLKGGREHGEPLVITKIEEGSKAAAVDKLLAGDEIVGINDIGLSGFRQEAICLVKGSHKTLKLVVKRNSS

[26] = target: T19, GST-AIPC PDZ domain 1 (Homo sapiens (Human)), O15018
T19 chain: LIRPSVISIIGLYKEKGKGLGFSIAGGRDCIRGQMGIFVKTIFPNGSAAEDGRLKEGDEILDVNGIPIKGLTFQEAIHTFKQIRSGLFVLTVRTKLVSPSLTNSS

[27] = target: T20, GST-PDZK1 PDZ domains 2, 3, 4, Q5T2W1
T20 chain: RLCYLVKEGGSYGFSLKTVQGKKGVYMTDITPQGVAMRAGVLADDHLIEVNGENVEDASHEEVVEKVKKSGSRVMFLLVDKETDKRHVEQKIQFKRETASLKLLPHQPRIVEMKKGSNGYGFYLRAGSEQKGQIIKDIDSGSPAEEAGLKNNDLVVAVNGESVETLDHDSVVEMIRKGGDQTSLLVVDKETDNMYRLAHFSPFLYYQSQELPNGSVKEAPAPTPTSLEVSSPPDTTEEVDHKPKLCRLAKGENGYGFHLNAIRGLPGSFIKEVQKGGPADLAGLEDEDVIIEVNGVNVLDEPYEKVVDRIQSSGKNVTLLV

[28] = target: GST-BAI-1 Associated Protein PDZ domain 4 (Homo sapiens (Human)), Q96QZ7
[29] = target: T21, GST-PTPL1 PDZ domain 2 (Homo sapiens (Human)), Q12923
T21 chain: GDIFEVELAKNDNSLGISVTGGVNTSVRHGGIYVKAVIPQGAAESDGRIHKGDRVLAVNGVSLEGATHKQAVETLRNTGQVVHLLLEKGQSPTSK

[30] = target: GST-BAI-1 Associated Protein PDZ domain 3 (Homo sapiens (Human)), Q96QZ7
[31] = target: T22, GST-FLJ 10324 PDZ domain 1 [GST: P08515]
T22 chain: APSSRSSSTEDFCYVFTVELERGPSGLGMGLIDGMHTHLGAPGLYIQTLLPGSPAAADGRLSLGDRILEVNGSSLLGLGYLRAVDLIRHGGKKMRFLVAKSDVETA

[32] = target: GST-BAI-1 Associated Protein PDZ domain 6 (Homo sapiens (Human)), Q96QZ7
Also: key of the grades not given here.

Chain of GST-KIAA1634 PDZ domain 1 (Homo sapiens (Human)), Q5TCQ9 (Q5TCQ9 401-502): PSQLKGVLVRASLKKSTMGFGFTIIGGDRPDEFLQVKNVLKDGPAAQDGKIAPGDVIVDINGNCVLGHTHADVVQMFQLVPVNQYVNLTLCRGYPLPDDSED
Chain of GST-KIAA807 [GST: P08515] (P08515 whole entry, the tested form may be a part): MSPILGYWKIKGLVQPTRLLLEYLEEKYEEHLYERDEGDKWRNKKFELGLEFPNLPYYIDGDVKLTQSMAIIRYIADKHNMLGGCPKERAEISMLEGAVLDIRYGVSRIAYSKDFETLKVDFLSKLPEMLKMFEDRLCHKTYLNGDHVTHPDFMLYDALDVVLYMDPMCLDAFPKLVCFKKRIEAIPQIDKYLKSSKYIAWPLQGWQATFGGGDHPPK
Chain of GST-PSD95 PDZ domains 1, 2, 3 (Homo sapiens), P78352 (P78352 62-395): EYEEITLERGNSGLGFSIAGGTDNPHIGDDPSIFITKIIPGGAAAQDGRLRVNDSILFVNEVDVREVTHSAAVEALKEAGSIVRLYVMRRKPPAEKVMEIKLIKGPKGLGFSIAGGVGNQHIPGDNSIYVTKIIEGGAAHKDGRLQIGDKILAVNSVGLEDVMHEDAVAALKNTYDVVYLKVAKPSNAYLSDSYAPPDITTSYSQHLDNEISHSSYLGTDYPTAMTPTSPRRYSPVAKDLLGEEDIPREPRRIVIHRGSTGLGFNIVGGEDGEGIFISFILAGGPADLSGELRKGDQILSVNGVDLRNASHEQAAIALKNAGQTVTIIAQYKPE
Chain of GST-BAI-1 Associated Protein PDZ domain 5 (Homo sapiens (Human)), Q96QZ7 (Q96QZ7 988-1099): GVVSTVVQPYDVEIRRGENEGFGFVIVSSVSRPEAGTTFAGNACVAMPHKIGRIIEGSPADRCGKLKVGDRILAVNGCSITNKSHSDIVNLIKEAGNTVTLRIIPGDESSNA
Chain of GST-BAI-1 Associated Protein PDZ domain 3 (Homo sapiens (Human)), Q96QZ7 (Q96QZ7 other isoform, or with tags, fused parts or gaps): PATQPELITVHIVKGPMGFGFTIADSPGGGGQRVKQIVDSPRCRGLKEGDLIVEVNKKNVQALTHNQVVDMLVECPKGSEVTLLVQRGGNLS
Chain of GST-BAI-1 Associated Protein PDZ domain 2 (Mus musculus (Mouse)), Q6RHR9 (Q6RHR9 455-558): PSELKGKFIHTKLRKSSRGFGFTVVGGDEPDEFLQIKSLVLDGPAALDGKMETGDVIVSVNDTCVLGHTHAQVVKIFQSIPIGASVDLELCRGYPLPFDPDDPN
Chain of GST-BAI-1 Associated Protein PDZ domain 6 (Homo sapiens (Human)), Q96QZ7 (Q96QZ7 1143-1233): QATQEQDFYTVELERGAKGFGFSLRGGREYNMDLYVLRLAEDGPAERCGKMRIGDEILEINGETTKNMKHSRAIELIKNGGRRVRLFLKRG
Chain of GST-KIAA0147 PDZ domain 1 (Homo sapiens (Human)), Q14160 (Q14160 other isoform, or with tags, fused parts or gaps): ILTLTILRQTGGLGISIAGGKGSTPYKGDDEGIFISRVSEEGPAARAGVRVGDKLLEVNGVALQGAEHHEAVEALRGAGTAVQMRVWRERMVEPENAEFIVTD
Chain of GST-BAI-1 Associated Protein PDZ domain 4 (Homo sapiens (Human)), Q96QZ7 (Q96QZ7 other isoform, or with tags, fused parts or gaps): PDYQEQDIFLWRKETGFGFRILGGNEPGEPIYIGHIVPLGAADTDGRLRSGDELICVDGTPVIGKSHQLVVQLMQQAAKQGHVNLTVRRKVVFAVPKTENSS

B1: ephrin B1 (peptide)
peptide: PVYIVQEMPPQSPANIYYKV
modifications: not checked
A Classification [1] of 1 A450 class, a Classification [2] of 2 A450 class and a Classification [3] of 1 A450 class were found for B1 in this work. It also gave a Classification [4] of 1 A450 class, a Classification [5] of 1 A450 class and a Classification [6] of 1 A450 class.

B2: APC-adenomatous polyposis coli protein (peptide)
peptide: ESSGTQSPKRHSGSYLVTSV
modifications: not checked
A Classification [7] of 1 A450 class, a Classification [8] of 5 A450 class and a Classification [1] of 1 A450 class were found for B2 in this work. For the same binder, the Classification [9] was 1 A450 class, the Classification [10] was 1 A450 class and the Classification [11] was 1 A450 class. For the same binder, the Classification [12] was 2 A450 class, the Classification [3] was 1 A450 class and the Classification [13] was 1 A450 class. It also gave a Classification [14] of 3 A450 class, a Classification [15] of 4 A450 class and a Classification [16] of 1 A450 class. The Classification [17] was 5 A450 class, the Classification [18] was 1 A450 class and the Classification [19] was 1 A450 class. The Classification [20] was 2 A450 class.

B3: CD46 (peptide)
peptide: KKGTYLTDETHREVKFTSL
modifications: not checked
A Classification [1] of 5 A450 class, a Classification [21] of 1 A450 class and a Classification [3] of 4 A450 class were found for B3 in this work. The Classification [22] was 1 A450 class, the Classification [19] was 1 A450 class and the Classification [23] was 2 A450 class.

B4: bone morphogenetic protein receptor (peptide)
peptide: TALRIKKTLAKMVESQDVKI
modifications: not checked
A Classification [1] of 1 A450 class, a Classification [4] of 1 A450 class and a Classification [5] of 1 A450 class were found for B4 in this work. For the same binder, the Classification [6] was 1 A450 class.

B5: Fas Ligand (peptide)
peptide: SSKSKSSEESQTFFGLYKL
modifications: not checked
A Classification [24] of 3 A450 class, a Classification [1] of 5 A450 class and a Classification [21] of 4 A450 class were found for B5 in this work. For the same binder, the Classification [25] was 2 A450 class, the Classification [3] was 5 A450 class and the Classification [23] was 2 A450 class. For the same binder, the Classification [26] was 2 A450 class.

B6: somatostatin receptor 4 (peptide)
peptide: EALQPEPGRKRIPLTRTTTF
modifications: not checked
A Classification [27] of 1 A450 class, a Classification [21] of 1 A450 class and a Classification [3] of 1 A450 class were found for B6 in this work. The Classification [28] was 1 A450 class, the Classification [17] was 1 A450 class and the Classification [19] was 1 A450 class.

B7: ErbB-4 receptor (peptide)
peptide: SLKPGTVLPPPPYRHRNTVV
modifications: not checked
A Classification [7] of 1 A450 class, a Classification [8] of 1 A450 class and a Classification [29] of 2 A450 class were found for B7 in this work. It also gave a Classification [30] of 1 A450 class, a Classification [15] of 1 A450 class and a Classification [17] of 1 A450 class. For the same binder, the Classification [31] was 1 A450 class.

B8: Nedasin (s-form) (peptide)
peptide: RNIEEVYVGGKQVVPFSSSV
modifications: not checked
A Classification [24] of 1 A450 class, a Classification [8] of 3 A450 class and a Classification [21] of 1 A450 class were found for B8 in this work. It also gave a Classification [12] of 1 A450 class, a Classification [3] of 2 A450 class and a Classification [13] of 1 A450 class. For the same binder, the Classification [14] was 5 A450 class, the Classification [15] was 2 A450 class and the Classification [16] was 1 A450 class. The Classification [17] was 3 A450 class and the Classification [32] was 1 A450 class.

B9: claudin 2 (peptide)
peptide: PGQPPKVKSEFNSYSLTGYV
modifications: not checked
A Classification [21] of 2 A450 class, a Classification [30] of 1 A450 class and a Classification [3] of 1 A450 class were found for B9 in this work. For the same binder, the Classification [13] was 1 A450 class.

B10: Mannose Receptor (peptide)
peptide: GTSDMKDLVGNIEQNEHSVI
modifications: not checked
A Classification [1] of 1 A450 class, a Classification [25] of 1 A450 class and a Classification [11] of 1 A450 class were found for B10 in this work. The Classification [3] was 1 A450 class.
